This is an account of results in patent CN111748039A.

In this assay the target is 重组CEA蛋白 (UniProt P06731).
Chain of UniProt P06731 (P06731 35-685 limits assumed): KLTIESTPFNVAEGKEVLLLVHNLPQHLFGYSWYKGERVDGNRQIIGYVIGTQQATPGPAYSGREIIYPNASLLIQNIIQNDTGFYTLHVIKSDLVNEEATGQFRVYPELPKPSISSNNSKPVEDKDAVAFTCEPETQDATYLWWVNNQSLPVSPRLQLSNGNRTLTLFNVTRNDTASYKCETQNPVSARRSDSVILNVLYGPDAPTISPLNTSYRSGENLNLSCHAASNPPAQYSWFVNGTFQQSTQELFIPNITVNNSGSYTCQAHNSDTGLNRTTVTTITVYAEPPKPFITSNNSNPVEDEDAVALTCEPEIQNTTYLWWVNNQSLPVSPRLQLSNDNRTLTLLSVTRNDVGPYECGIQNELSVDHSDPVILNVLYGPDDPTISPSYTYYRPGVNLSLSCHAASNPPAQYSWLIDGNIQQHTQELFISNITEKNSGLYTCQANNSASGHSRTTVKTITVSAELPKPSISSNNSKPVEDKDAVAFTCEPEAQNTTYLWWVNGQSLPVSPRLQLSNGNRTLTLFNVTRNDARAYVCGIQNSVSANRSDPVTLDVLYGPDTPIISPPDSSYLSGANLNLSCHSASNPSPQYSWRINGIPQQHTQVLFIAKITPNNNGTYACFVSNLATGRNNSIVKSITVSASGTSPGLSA

B1: 1#单抗 (antibody, mouse IgG1, kappa, V domains shown)
VH: QIQLVQSGPELKKPGETVKISCKTSGYTFTNYAMNWVKQAPGKGLKWMGWINTNTGEPTYAEEFKGRFAFSLETSATAAYLQINNLKNDDTASYFCARGWVLYAMDYWGQGTSVTVSS
VL: DIQMTQTTSSLSASLGDRVTISCRASQDISNYLNWYQQKSDGTVKLLIYYTSRLHSGVPSRFSGSGSGTDYSLTISNLDPEDVATYFCQQGDMFMFGGGTKLEIRT
For B1, the 效价 (titer) was 100000.
